Where two headings read alike, the source gives them in different places.
Columns and labels:
[1] = tested on: pancreatic peritoneal metastatic tumors; assay: combination anti-DEspR mAb and gemcitabine in rats with pancreatic peritoneal metastatic tumors; assay type: in vivo; conditions: per rat
Experimental: FIG. 36 depicts representative images of tumor treated rats with combination anti-DEspR mAb and gemcitabine vs gemcitabine alone, and mock-treated saline controls. GEM tx: gemcitabine treatment (100 mg/kg/dose iv×2). Hu-6g8 or ABTM-468: humanized anti-DEspR mAb treatment 1 mg/kg/dose iv×1/week×2. Combo-tx: combination therapy. Saline mock Tx: mock.
The observations of anti-DEspR/gemcitabine synergy supports the potential of anti-DEspR mAb therapy to be a compelling partner for combination with checkpoint inhibitors. […] The paradigm of unique combinatorial synergy was further tested in vivo. […] Moreover, there was no ascites in ComboTx-rats. Gut distention from gut-dysfunction is also evident in saline mock-treated (Tx) control. (FIG. 36).
Importantly, metastasis to the liver and retroperitoneal space, and ascites were all prevented/inhibited by ComboTx.

[2] = tested on: LPS-induced hemorrhagic encephalopathy in stroke prone rats; assay: LPS-induced hemorrhagic encephalopathy / multi-organ failure rat model; assay type: in vivo
Excerpt: FIG. 3A) control rat brain after PBS-buffer perfusion to eliminate intravascular blood.
FIG. 4 depicts a survival curve analysis of anti-DEspR treated rats compared with non-treated rats in a rat model of LPS-induced multi-organ failure manifesting predominantly as hemorrhagic encephalopathy (phenotype corroborated in FIG. 3A-3F).
Neutrophil-mediated tissue injury has been implicated in blood brain barrier disruption or injury.
The murine precursor anti-DEspR antibody, 6g8-mumab, was studied in a rat model of LPS-induced hemorrhagic encephalopathy as a paradigm of multi-organ failure (MOF) in ARDS and sepsis (FIG. 3A-3F).
It was also determined whether anti-DEspR can increase survival of rats in a LPS-induced hemorrhagic encephalopathy MOF rat model.

[3] = tested on: LPS-activated neutrophils; assay: ex vivo survival of LPS-activated neutrophils; assay type: cell-based, rat; conditions: vs control non-treated activated neutrophils, P<0.0001; listed as 6g8
Excerpt: FIGS. 2A-2B depict DEspR expression on rat activated neutrophils and anti-DEspR inhibition of activated neutrophil survival. FIG. 2A) FACS analysis of CD11b activated neutrophils that are DEspR+(bold oval), and DEspR[−] (bold circle). Quiescent neutrophils are DEspR[−] and CD11B[−] in Quadrant Q4. FIG. 2B depicts inhibition of the extended survival of activated neutrophils by two different anti-DEspR mAbs targeting two different epitopes on DEspR.
DEspR is expressed on activated human neutrophils (FIG. 1A) and in neutrophils undergoing NETosis (FIG. 1C-D), in contrast to isotype control (FIG. 1B). Anti-DEspR mAb detects DEspR expression on rat LPS-activated neutrophils (FIG. 2A). […] Majority of CD11b activated neutrophils are DEspR+(Red bold circle) in contrast to CD11b+ but DEspR(−) (yellow circle) activated neutrophils (FIG. 2A).
Briefly, this anti-DEspR approach is supported by experimental data as outlined below: • 1. Validation of DEspR as target. DEspR is expressed on activated human neutrophils (FIG. 1A,1C,1D). Anti-DEspR immunostaining specificity is shown by no signal in isotype control neutrophils (FIG. 1B). Most human neutrophils undergoing NETosis are DEspR+ (FIG. 1C-1D). NETs (neutrophil extracellular traps) are associated with organ microthrombi in MOF and directly induce endothelial and epithelial cell death,^56 all of which are pathogenic events in ARDS. • 2. […]

activated neutrophils = assay: dose-response survival assay of activated neutrophils (Trypan blue dye exclusion); assay type: cell-based; conditions: for IC50: live cells counted by Trypan blue dye exclusion, read-out: IC50, inhibition of activated neutrophil survival
Excerpt: FIG. 6 depicts a graph comparison of functional activity of anti-DEspR fully humanized 6g8 mAb, 6g8-humab, and prototype murine anti-DEspR 6g8 mAb, 6g8-mumab.
(§1) FIGS. 17A-17C depict anti-DEspR-mab (hu6g8 mab). FIG. 17A depicts a diagram of DEspR, murine precursor mabs and humanized IgG and IgG4 mabs. Hu6g8 is notated as 6g8g7-hu-IgG4 raised against epitope 2, spanning the putative binding domain.
Described herein are the advantages of anti-DEspR mAb targeted AECs. DEspR, the dual endothelin1/signal peptide receptor,^9 is a validated target on human activated neutrophils and NETs. Hu6g8 binds human activated neutrophils (FIG. 18A) and NETs (FIG. 18B), as confirmed by Western Blot analysis of DEspR protein in human kidney (K), and activated neutrophil samples, act-Ns (FIG. 18C). Humanized anti-DEspR-mab (hu6g8 mab) is an ideal targeting moiety. Hu6g8 is the multi-species Human/NHPrimate/Rat reactive humanized-deimmunized anti-DEspR-mab with a hinge-stabilized IgG4S228P/kappa Fc region (FIG. 17A) to avoid (ADCC-antibody dependent cell-mediated cytotoxicity, CDC-complement dependent cytotoxicity), and to eliminate loss of targeting upon Fab arm exchange typical of native IgG4 isotype. […] Through recombinant DNA technology, the antibody design incorporates: a) avoidance of T-cell epitopes for low immunogenicity; b) optimization of heavy and light chain interactions for stability of variable domains; and, c) exclusion of destabilizing post-translational modification sites [e.g., deamidation, oxidation]. The targeting of DEspR^+ NETs, but sparing of DEspR(−) quiescent neutrophils via the anti-DEspR mAb is also novel. […] The use of human neutrophil-elastase cleavable linker is advantageous as this connector-peptide can be added by recombinant technology and HNE is enriched on NETs and actually a reason for the injurious properties of NETs. HNE is desirable for local therapeutic delivery [Owen C A, Campbell E J. J Leukocyte Biol 1999, 65 (2) 137-150], has specificity for small uncharged amino acids particularly alanine (A) and valine (V) [Meers P. Adv Drug Delivery Rev. 2001. 53 (3) 265-272]. […] The advantages of all three in an AEC is novel and robust as the targeted delivery and release of DNAse 1 on NETs can attain in vivo efficacy of what has been shown in vitro, the induction of macrophage uptake-and-clearance of NETs upon DNAse 1 digest of NETs DNA. In summary, targeting the intravascular NETs sites. The humanized anti-DEspR-mab with a hinge-stabilized IgG4/kappa Fc region to avoid Fab arm exchange in vivo and ensuing loss of targeting was selected. Additionally, this avoids immune effector functions of IgG1 mAbs (ADCC, CDC), which would worsen endothelial injury. […]

[4] = target: T1, DEspR on intact human cells (Homo sapiens, UniProt B0L3A2); assay: hu6g8 binding to DEspR on intact human cells; conditions: done in triplicate
T1 construct: endogenous in cells; host or cells: intact human cells / 'DEspR+ human cells'
T1 sequence (B0L3A2 1-85): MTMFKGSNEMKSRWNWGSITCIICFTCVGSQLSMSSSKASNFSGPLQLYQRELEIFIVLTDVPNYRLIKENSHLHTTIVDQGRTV
Excerpt: as §1
Described herein is the development, characterization, and validation of a fully humanized anti-DEspR mAb with a S228P hinge-stabilized IgG4/kappa FC region, designated herein as hu-6g8 or […]. The hu-6g8 was designed for high binding affinity to DEspR+ human cells and inhibition of activated neutrophil survival. hu-6g8 is reactive in all species, having identical epitopes in human, primates and rodents, which facilitates preclinical and clinical studies using the therapeutic lead. […] (FIG. 6). Through recombinant DNA technology, hu-6g8 was designed with optimal biophysical properties via: a) avoidance of T-cell epitopes for low immunogenicity—‘deimmunized’, b) optimization of heavy and light chain interactions for stability of variable domains, and c) exclusion of destabilizing post-translational modification sites [deamidation, oxidation, acid-lability, inappropriate N-glycosylation, isomerization and pyroglutamate formation].
Described herein are the advantages of anti-DEspR mAb targeted AECs. DEspR, the dual endothelin1/signal peptide receptor,^9 is a validated target on human activated neutrophils and NETs. […]

| Molecule | Ascites volume [1] [mls] | Tumor weight (g) Greater Omentum [1] [g] | Ascites ([1]; GEM 100 mg/kg/dose iv×2, hu-6g8 1 mg/kg/dose iv×1/week×2) | progression to hemorrhagic encephalopathy ([2]; single dose 1 mg/kg/dose iv after LPS) | murine IgG levels in brain (ELISA of brain membrane proteins) ([2]; treated rat brains, target engagement) | neutrophil myeloperoxidase (MPO) levels in the brain (ELISA) ([2]; vs non-treated LPS brains) | rat albumin levels in the brain (ELISA), brain edema ([2]; vs non-treated LPS brains) | survival of activated neutrophils ex vivo [3] | IC50 (activated neutrophils; listed as mu-6g8) [nM] | IC50 (activated neutrophils) [nM] | IC50, inhibition of activated neutrophil survival (activated neutrophils; maximum dose used in the dose-response survival assay) [µg/mL] | EC50 [4] [nM] |
| --- | --- | --- | --- | --- | --- | --- | --- | --- | --- | --- | --- | --- |
| Nc1ccn([C@@H]2O[C@H](CO)[C@@H](O)C2(F)F)c(=O)n1 [GEM, gemcitabine] | 1.5 | 1.6351 | Bloody | – | – | – | – | – | – | – | – | – |
| 6g8-mumab: murine precursor anti-DEspR antibody, pan-species reactive anti-Human/Rat/Monkey DEspR mAb (antibody, V domains shown) VH: GSEVQLQESGGGLVQPGGSLKLSCAASGFDFSRYWMSWVRQAPGKGLEWIGEINPDSSTINYTPSLKDKFIISRDTAKKTLYLQMSKVRSEDTALYYCARHGRGMDYWSQGTSVTVSSAKTTPPSVYGGGGS VL: GGGGSDIVLTQTNQIMSASVGDRVSVTCKASQNVDSNVAWYQQKPGHSPKALIYSASYRYSRVPDRITGSGSGTDFTLTITNVQSKDLADYFCQQYHSYPLLAFGAGTKLELKRADAAPTVSLE | – | – | – | attenuated the progression to life-threatening hemorrhagic encephalopathy | greater brain levels than anti-DEspR 10a3 | decreased myeloperoxidase levels | decreased albumin levels | decreased their survival | > 198 | > 200 | > 30 | 178 |
